Results as given in patent publication US20260242478A1 (published 2026).
Where no end group is shown, it is not given here.

B1: Phage-2933 (peptide)
peptide: VERACVPVWMCEGF
notes: tested as crude phage supernatant
B2: Phage-2947 (peptide)
peptide: GDHLCRPSWMCVGF
notes: Peptide-180 library clone, tested as clonal phage (peptide fused to pIII)
B3: Phage-2934 (peptide)
peptide: EFNWCRPLWMCVGF
modifications: cysteine pairing not given here; also: peptide displayed as fusion to phage pIII
notes: Peptide-180 library clone, tested as clonal phage (peptide fused to pIII of the bacteriophage)
B4: Phage-2932 (peptide)
peptide: MHMLCRPAWMCSGF
notes: as for B1
B5: Phage-2951 (peptide)
peptide: ENIMCEPMWMCIGF
B6: Phage-2948 (peptide)
peptide: FPHMCKPEWMCAGF
modifications: cysteine pairing not given here; also: peptide displayed as fusion to phage pIII
B7: Phage-2950 (peptide)
peptide: SSPICKPMWMCTGF
B8: Phage-2956 (peptide)
peptide: YLQFCKPVWMCTGF
B9: Phage-2960 (peptide)
peptide: WEQRCVPEWMCVGF
B10: Phage-2926 (peptide)
peptide: VDRMCKPTWMCEGF
notes: as for B1
B11: Phage-2928 (peptide)
peptide: IVPACKPVWMCDGF
notes: as for B1
B12: Phage-2946 (peptide)
peptide: EMRMCTPPWMCWGF
notes: as for B2
B13: Phage-2958 (peptide)
peptide: EQPLCTPQWMCWGF
B14: Phage-2938 (peptide)
peptide: HVPKCVPQWMCIGF
notes: as for B2
B15: Phage-2942 (peptide)
peptide: ELILCQPRWMCEGF
notes: as for B2
B16: Phage-2949 (peptide)
peptide: WDHLCKPDWMCLGF
B17: Phage-2929 (peptide)
peptide: NIPHCVPAWMCIGF
notes: as for B1
B18: Phage-2945 (peptide)
peptide: TVIKCIPAWMCDGF
notes: as for B2
B19: Phage-2953 (peptide)
peptide: VDIQCKPLWMCIGM
B20: Phage-2959 (peptide)
peptide: PEFVCKPSWMCQGF
B21: Phage-2954 (peptide)
peptide: TLMRCEPSWMCQGF
B22: Phage-2925 (peptide)
peptide: TPIFCVPAWMCSGF
notes: as for B1
B23: Phage-2927 (peptide)
peptide: IKPFCVPEWMCVAL
notes: as for B1
B24: Phage-2955 (peptide)
peptide: TTAYCIPPWMCSGF
B25: Phage-2941 (peptide)
peptide: DVRMCKPSWMCIGL
notes: as for B2
B26: Phage-2944 (peptide)
peptide: LTPMCKPSWMCDGF
notes: as for B2
B27: Phage-2939 (peptide)
peptide: ISALCVPDWMCYGF
notes: as for B2
B28: Phage-2935 (peptide)
peptide: IHPVCKPDWMCAGF
modifications: cysteine pairing not given here; also: peptide fused to pIII
notes: as for B2
B29: Phage-2943 (peptide)
peptide: EGIYCRPAWMCEGF
notes: as for B2
B30: Phage-2952 (peptide)
peptide: IMPKCEPIWMCAGF
modifications: cysteine pairing not given here; also: peptide displayed as fusion to phage pIII
B31: Phage-2957 (peptide)
peptide: AYEMCIPAWMCEGF
B32: Phage-2937 (peptide)
peptide: VFPMCKPAWMCLGF
notes: as for B2
B33: Phage-2940 (peptide)
peptide: FDKICVPTWMCTGF
notes: as for B2
B34: Phage-2936 (peptide)
peptide: IDPMCKPLWMCAGF
modifications: cysteine pairing not given here; also: peptide displayed as fusion to phage pIII
notes: as for B2
B35: Phage-2931 (peptide)
peptide: VEQMCKPEWMCKGF
notes: as for B1
B36: Phage-2930 (peptide)
peptide: TQALCVPSWMCDGF
notes: as for B1
B37: Phage-2961 (peptide)
peptide: ADPVCRPQWMCEGF

Experiments:
PSMA Fab (006 PSMA Fab) [1] = target: T1, PSMA Fab (006 PSMA Fab); test: phage ELISA; clonal phage on plate-captured PSMA Fab pre-incubated with PSMA antigen as competitor, anti-M13 HRP detection
T1 construct: also called Anti-PSMA Fab; anti-PSMA Fab
Method: (§1) Clonal phage were harvested as crude supernatants and screened via standard ELISAs. […] Prior to the addition of clonal phage. wells were incubated with blocking buffer and PSMA antigen or blocking buffer alone. Without washing or aspirating, clonal phage supernatants were then added to the wells and incubated for a short time. Wells were then washed followed by detection of bound phage using a horse radish conjugated anti-M13 antibody.

PSMA Fab (006 PSMA Fab) [2] = target: T1, PSMA Fab (006 PSMA Fab); test: phage ELISA; clonal phage supernatant on biotinylated PSMA Fab captured on neutravidin plate, anti-M13 HRP detection
Method: as §1

006 PSMA Fab [3] = target: T2, 006 PSMA Fab (biotinylated (site not stated)); test: clonal phage ELISA on captured PSMA Fab, wells pre-incubated with PSMA antigen as competitor
T2 construct: also called Anti-PSMA Fab

006 PSMA Fab [4] = target: T2, 006 PSMA Fab; test: clonal phage ELISA on biotinylated PSMA Fab captured on neutravidin, anti-M13-HRP detection;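 also: crude clonal phage supernatants added to wells preincubated with PSMA antigen in blocking buffer or with blocking buffer alone, brief binding period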
Method: as §1

PSMA Fab (006 PSMA Fab) [5] = target: T3, PSMA Fab (006 PSMA Fab) (biotinylated (site not stated)); test: clonal phage ELISA on biotinylated PSMA Fab captured on neutravidin, anti-M13 HRP detection, no PSMA antigen
T3 construct: also called Anti-PSMA Fab

PSMA Fab (006 PSMA Fab) [6] = target: T3, PSMA Fab (006 PSMA Fab); test: clonal phage ELISA on biotinylated PSMA Fab captured on neutravidin, anti-M13 HRP detection, competitor PSMA antigen
Method: as §1

| Binder | Phage binding ELISA signal, Anti-PSMA Fab in presence of PSMA (006 PSMA Fab [3]) | Phage binding ELISA signal, Anti-PSMA Fab (006 PSMA Fab [4]) | Phage binding ELISA signal, Anti-PSMA Fab (PSMA Fab (006 PSMA Fab) [5]) | Phage binding ELISA signal, Anti-PSMA Fab with PSMA antigen (PSMA Fab (006 PSMA Fab) [6]) | also measured |
| --- | --- | --- | --- | --- | --- |
| B1 | – | – | – | – | Phage binding ELISA signal, Anti-PSMA Fab with PSMA antigen (PSMA Fab (006 PSMA Fab) [1]): 0.11; Phage binding ELISA signal, Anti-PSMA Fab (PSMA Fab (006 PSMA Fab) [2]): 2.29 |
| B2 | 0.0649 | 2.28 | – | – | – |
| B3 | 0.157 | 2.29 | – | – | – |
| B4 | – | – | – | – | Phage binding ELISA signal, Anti-PSMA Fab with PSMA antigen (PSMA Fab (006 PSMA Fab) [1]): 0.21; Phage binding ELISA signal, Anti-PSMA Fab (PSMA Fab (006 PSMA Fab) [2]): 2.29 |
| B5 | – | – | 2.27 | 0.0839 | – |
| B6 | – | – | 2.28 | 0.0876 | – |
| B7 | – | – | 2.28 | 0.0918 | – |
| B8 | – | – | 2.27 | 0.15 | – |
| B9 | – | – | 2.26 | 0.0987 | – |
| B10 | – | – | – | – | Phage binding ELISA signal, Anti-PSMA Fab with PSMA antigen (PSMA Fab (006 PSMA Fab) [1]): 0.12; Phage binding ELISA signal, Anti-PSMA Fab (PSMA Fab (006 PSMA Fab) [2]): 2.31 |
| B11 | – | – | – | – | Phage binding ELISA signal, Anti-PSMA Fab with PSMA antigen (PSMA Fab (006 PSMA Fab) [1]): 0.11; Phage binding ELISA signal, Anti-PSMA Fab (PSMA Fab (006 PSMA Fab) [2]): 2.31 |
| B12 | 0.112 | 2.28 | – | – | – |
| B13 | – | – | 2.27 | 0.0972 | – |
| B14 | 0.202 | 2.29 | – | – | – |
| B15 | 0.0637 | 2.28 | – | – | – |
| B16 | – | – | 2.28 | 0.0766 | – |
| B17 | – | – | – | – | Phage binding ELISA signal, Anti-PSMA Fab with PSMA antigen (PSMA Fab (006 PSMA Fab) [1]): 0.109; Phage binding ELISA signal, Anti-PSMA Fab (PSMA Fab (006 PSMA Fab) [2]): 2.31 |
| B18 | 0.09 | 2.28 | – | – | – |
| B19 | – | – | 2.27 | 0.0643 | – |

| Binder | Phage binding ELISA signal, Anti-PSMA Fab in presence of PSMA (006 PSMA Fab [3]) | Phage binding ELISA signal, Anti-PSMA Fab (006 PSMA Fab [4]) | Phage binding ELISA signal, Anti-PSMA Fab (PSMA Fab (006 PSMA Fab) [5]) | Phage binding ELISA signal, Anti-PSMA Fab with PSMA antigen (PSMA Fab (006 PSMA Fab) [6]) | also measured |
| --- | --- | --- | --- | --- | --- |
| B20 | – | – | 2.26 | 0.0681 | – |
| B21 | – | – | 2.27 | 0.0698 | – |
| B22 | – | – | – | – | Phage binding ELISA signal, Anti-PSMA Fab with PSMA antigen (PSMA Fab (006 PSMA Fab) [1]): 0.0946; Phage binding ELISA signal, Anti-PSMA Fab (PSMA Fab (006 PSMA Fab) [2]): 2.31 |
| B23 | – | – | – | – | Phage binding ELISA signal, Anti-PSMA Fab with PSMA antigen (PSMA Fab (006 PSMA Fab) [1]): 0.121; Phage binding ELISA signal, Anti-PSMA Fab (PSMA Fab (006 PSMA Fab) [2]): 2.31 |
| B24 | – | – | 2.27 | 0.15 | – |
| B25 | 0.0754 | 2.28 | – | – | – |
| B26 | 0.105 | 2.28 | – | – | – |
| B27 | 0.696 | 2.28 | – | – | – |
| B28 | 0.0823 | 2.29 | – | – | – |
| B29 | 0.0765 | 2.28 | – | – | – |
| B30 | – | – | 2.27 | 0.0746 | – |
| B31 | – | – | 2.27 | 0.0905 | – |
| B32 | 0.319 | 2.29 | – | – | – |
| B33 | 0.107 | 2.28 | – | – | – |
| B34 | 0.145 | 2.29 | – | – | – |
| B35 | – | – | – | – | Phage binding ELISA signal, Anti-PSMA Fab with PSMA antigen (PSMA Fab (006 PSMA Fab) [1]): 0.109; Phage binding ELISA signal, Anti-PSMA Fab (PSMA Fab (006 PSMA Fab) [2]): 2.3 |
| B36 | – | – | – | – | Phage binding ELISA signal, Anti-PSMA Fab with PSMA antigen (PSMA Fab (006 PSMA Fab) [1]): 0.0747; Phage binding ELISA signal, Anti-PSMA Fab (PSMA Fab (006 PSMA Fab) [2]): 2.3 |
| B37 | – | – | 2.26 | 0.11 | – |
